This data set in a line: yeast display, Sf9 membrane polyspecificity reagent, FACS + sequencing; frameworks hold sequencing errors. In a few lines: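 Sorting gates, low and high (top ~1%), were placed on anti-HA fluorescence to track expression and on streptavidin fluorescence to track reagent binding. A clone's polyreactivity label is taken from the gate it came out of. The reagent was 10% biotinylated, detergent-solubilized Sf9 membrane, applied for 1 hour at 4 °C to galactose-induced yeast display cells.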
Turning to “QVQLVESGGGLVQAGGSLRLSCAASGRTFHGYALGWYRQAPGKERELVARINWSDGRTYYADSVKGRFTISRDNAKNTVYLQMNSLKPEDTAVYYCAADKTVSYAPAWYYYWGQGTQVTVSS”, the “polyreactivity (PSR sort gate)” value is reported as “low polyreactivity”.

“QVQLVESGGGLVQAGGSLRLSCAASGRTFHKYAMGWYRQAPGKEWELVAAISNGGRTYYADSVKGRFTISRDNAKNTVYLQMNSLKPEDTAVYYCNADRTWKGRQYDYWGQGTQVTVSS”: the “polyreactivity (PSR sort gate)” value is on record as “high polyreactivity”.

For the sequence “QVQLVESGGGLVQAGGSLRLSCAASGRTFHRYAMGWYRQAPGKERELVAAITSSGGSTNYADSVKGRFTISRDYAKNTVYLQMNSLKPEDTAVYYCATDRYRYTSHPWSRGFDYWGHGTQVTVSS”, the “polyreactivity (PSR sort gate)” value is “low polyreactivity”.

“QVQLVESGGGLVQAGGSLRLSCAASGRTFHRYTMGWYRQAPGKERELVASISRSGGSTYYADSVKGRFTISRDNAKNTVYLQMNSLKPEDTAVYYCAARVSRRGTWYDYWGQGTQVTVSS”: the “polyreactivity (PSR sort gate)” value is listed as “high polyreactivity”.

Turning to “QVQLVESGGGLVQAGGSLRLSCAASGRTFHTYAIGWYRQAPGKERELVAAITRRGGSTYYADSVKGRFTISRDNAKNTVYLQMNSLKPEDTAVYYSAAPWYGYWGQGTQVTVSS”, the “polyreactivity (PSR sort gate)” value is “high polyreactivity”.

As to “QVQLVESGGGLVQAGGSLRLSCAASGRTFHVYAMGWYRQAPGKERELVAAITWSGDSTYYADSVKGRFTISRDNAKNTVYLQMNSLNTEDTAVYYCAASKFWKYDYWGQGTQVTVSS”, the “polyreactivity (PSR sort gate)” value was “low polyreactivity”.

On to “QVQLVESGGGLVQAGGSLRLSCAASGRTFHYNAMGWYRQAPGKERELVAAISRDGGSTDYADSVKGRFTISRDNAKNTVYLQMNSLKPEDTAVYYCAAPIGKQEFSRDYDYWGQGTQVTVSS”, for which the “polyreactivity (PSR sort gate)” value is recorded as “low polyreactivity”.

Consider “QVQLVESGGGLVQAGGSLRLSCAASGRTFIANAMGWYRQAPGKERELVAVITLNGGSTYYADSVKGRFTISRDNAKNTVYLQMNSLKPEDSAVYYCDAGRYYNLRATHGYWRQGTQVTVSS”, for which the “polyreactivity (PSR sort gate)” value is given as “low polyreactivity”.

“QVQLVESGGGLVQAGGSLRLSCAASGRTFIGYAMAWYRQAPGKEWELVAAISARGGRTYYADSVKGRFTISRDNAKNTVYLQMNSLKPEETAVYYCAAVRVKHSGYDYWGQGTQVTVSS”: the “polyreactivity (PSR sort gate)” value is recorded as “high polyreactivity”.

For the sequence “QVQLVESGGGLVQAGGSLRLSCAASGRTFIKNAMGWYRQAPGKERELVATISKRGGRTYYADSVKGRFTISRDNAKNTVYLQMNSLKPEDTAVYYCAARYRKSGLDKYWGQGTQVTVSS”, the “polyreactivity (PSR sort gate)” value was “high polyreactivity”.

As to “QVQLVESGGGLVQAGGSLRLSCAASGRTFIKYAMGWYRPAPGKERALVAAISRNGGSTNYADSVKGRFTISRDNAKNTVDLQMNSLKPEDTAVYYCAAVGTVSSTVGYNYWGQGTQVTVSS”, the “polyreactivity (PSR sort gate)” value is listed as “high polyreactivity”.

For the sequence “QVQLVESGGGLVQAGGSLRLSCAASGRTFINYAKGWYRQAPGKERELVAAITTGGGGTYYADSVKGRFTISRDNAKNTVYLQMNSLKPEDTAVYYCAAEGTGYWGIVGYYYWGQGTQVTVSS”, the “polyreactivity (PSR sort gate)” value is listed as “low polyreactivity”.

Turning to “QVQLVESGGGLVQAGGSLRLSCAASGRTFIPYAMGWYRQAPGKERELVAAIRTTGGSTNYADSVKGRFTISRDNAKNTVYLQMNSLKPEDTAVYYCAATSRQRPYDYWGQGTQVTVSS”, the “polyreactivity (PSR sort gate)” value is “high polyreactivity”.

Take “QVQLVESGGGLVQAGGSLRLSCAASGRTFIRNVMGWYRQAPGKERELVAGITGGGNTYYADSVKGRFTISRDNAKNTVYLQMNSLKPEDTAVYECAVRYPSYGLSYVRYGYWGQVTQVTVSS”: the “polyreactivity (PSR sort gate)” value is listed as “high polyreactivity”.

“QVQLVESGGGLVQAGGSLRLSCAASGRTFISNAMGWYRQAPGKERELVAAITSTGGRTYYADSVKGRFTISRDNAKNTVYLQMNSLKPEDTAVYYCNTGKRRFYSMDYWGQGTQVTVSS”: the “polyreactivity (PSR sort gate)” value is “high polyreactivity”.

In the case of “QVQLVESGGGLVQAGGSLRLSCAASGRTFISNAMGWYRQAPGKERELVATISRRGGITYYADSVKGRFTISRDNSKNTVYLQMNSLKPEDTAVFYCNARNYPQGIYYWGQGTQVTLSS”, the “polyreactivity (PSR sort gate)” value is “high polyreactivity”.

Turning to “QVQLVESGGGLVQAGGSLRLSCAASGRTFISYAMGWYRQAPGKERELVAAIDFSDGSTYYADSVKGRFTISRDNAKNTVYLQMNSLKPEDTAVYYCAADDPGLGYWSLTWYDYWGQGTQVTVSS”, the “polyreactivity (PSR sort gate)” value is “high polyreactivity”.

Regarding “QVQLVESGGGLVQAGGSLRLSCAASGRTFIVNTMRWYRQAPGKDRELVAAITARGGRTYYADSEKGRFTISRDNAKNTVYLQLNSLKPEDTAVYYCNARTPPREAERYYWGQGTQVTVSS”, the “polyreactivity (PSR sort gate)” value is recorded as “low polyreactivity”.

As for “QVQLVESGGGLVQAGGSLRLSCAASGRTFIWNAMGWYRQAPGKERELVADISIRGGSTNYADSVKGRFTISRDNAKNTVYLQMNSLKPEDTAVYYCAADYYDSGNDYWGQGTQVTVSS”, the “polyreactivity (PSR sort gate)” value is “low polyreactivity”.

“QVQLVESGGGLVQAGGSLRLSCAASGRTFIYNTMGWYRQAPGKERELFAAISSGGSTNYADSVKGRFTISRDNAKNTVYLQMNSLKPEDTAVYYCATQGLSAPFDGFVNSRFDHRGQGTQVTVSS”: the “polyreactivity (PSR sort gate)” value is recorded as “low polyreactivity”.

For the sequence “QVQLVESGGGLVQAGGSLRLSCAASGRTFIYNVMGWYRQAPGKERELVAAISQRGGSTYYADSVKGRFTISRDNAKNTVYLQMNSLKPEDTAVYYCAAESYYKKWSDYWGQGTQVTVSS”, the “polyreactivity (PSR sort gate)” value is “high polyreactivity”.

“QVQLVESGGGLVQAGGSLRLSCAASGRTFIYYAMGWYRQAPGKERELVATIRGSSTRTYYADSVKGRFTISRDNAKNTVYLQMNSLKPEDTAVYYCAARGTSRKYYYWGQGTQVTVSS”: the “polyreactivity (PSR sort gate)” value was “high polyreactivity”.

Consider “QVQLVESGGGLVQAGGSLRLSCAASGRTFIYYDKGWYRQAPGKERDLVAAIRQRGDNTYYADSVKGSFTISRDNAKNTVYLKMKSLKPDDTAVYFCAAVNYLSYRYGYSWSYPGGGYWGQGTQVTVSS”, for which the “polyreactivity (PSR sort gate)” value was “high polyreactivity”.

In the case of “QVQLVESGGGLVQAGGSLRLSCAASGRTFKANAMGWYRQAPGKERELVAAISYSGGNTYYADSVKGRFTISRDNAKNTVYLQMNSLKPEDTAVYYCAARRGYGRENQFYSWGQGTQVTVSS”, the “polyreactivity (PSR sort gate)” value was “high polyreactivity”.

In the case of “QVQLVESGGGLVQAGGSLRLSCAASGRTFKAYAMGWYRQAAGKEREFVPAITKRGGSTYYADSVKGRFTISRDNAKNTVYLQMNSLKPEDTAVYYCAVGLGRYTHTSVPIPSYDYWGQGTQVTVSS”, the “polyreactivity (PSR sort gate)” value was “high polyreactivity”.

For “QVQLVESGGGLVQAGGSLRLSCAASGRTFKDYAKGWYRHAPGKERELVARINGSGGSTYYADSVKGRFTISRDTAKNSVYLQMNSLKPEDTAVYYCGKDARRRTSILSGGRHYDYWGQGTQVTVSS”, the “polyreactivity (PSR sort gate)” value is on record as “low polyreactivity”.

As to “QVQLVESGGGLVQAGGSLRLSCAASGRTFKDYAMGWDIQEPGKERELVAAISWSGGDTYYADSVKGRFTISRDNAKNTVYLQMNSLKPEDTAVYYCNADPSGVFFYSLEFDYWGQGTQVTVSS”, the “polyreactivity (PSR sort gate)” value is “low polyreactivity”.

In the case of “QVQLVESGGGLVQAGGSLRLSCAASGRTFKFYAMGWYRQAPGKERELVARITSNSGSTYYADSVKGRFTISRDNAKHTVYLQLNSLKPEETAVYYCNARYGYTYRTFRYDYWGQGSQVTVSS”, the “polyreactivity (PSR sort gate)” value is given as “high polyreactivity”.

For the sequence “QVQLVESGGGLVQAGGSLRLSCAASGRTFKFYAMGWYRQAPGKERELVARITSNSGSTYYADTVKVRYTISRDNAKNTVYLQMNSLKPEDTAVYYCAARGRYRQFNYWGQGTQVTVSS”, the “polyreactivity (PSR sort gate)” value was “high polyreactivity”.

For “QVQLVESGGGLVQAGGSLRLSCAASGRTFKFYAMGWYRQAPGKERELVATISSRGGNTFYADSVKGRFTISRDNAKNTVYLQMNSLIPEDTAVYYCAARRGVRKYPSAGYEYWGQGTQVTVSS”, the “polyreactivity (PSR sort gate)” value is recorded as “high polyreactivity”.

For the sequence “QVQLVESGGGLVQAGGSLRLSCAASGRTFKKYAMGWYRQAPGKERELVAAITSSGGSTYYADSVKGRFTISRDNAKNTVYLQMNSLKPEDTAVYYCNTVYRHRQRAKYNYWGQGTQVTVSS”, the “polyreactivity (PSR sort gate)” value is “high polyreactivity”.

As to “QVQLVESGGGLVQAGGSLRLSCAASGRTFKKYAMGWYRQAPGKERELVAGITGSGGSTYYADSVKGRFTISRDNAKNTVYLQMNSLKPEDTAVYYCAAYAYGGWHSQDGGNYWGQGTQVTVSS”, the “polyreactivity (PSR sort gate)” value is given as “low polyreactivity”.

“QVQLVESGGGLVQAGGSLRLSCAASGRTFKKYAMGWYRQAPGKVREFVARITYSAGSTYYADSVKGRFTISRDNAKNTVYLQMNSLKPEDTAVYYCARRYASSGPRWYSRHGEYDYWGQGTQVTVSS”: the “polyreactivity (PSR sort gate)” value is given as “low polyreactivity”.

On to “QVQLVESGGGLVQAGGSLRLSCAASGRTFKNYAMGWYRQAPGKERELVAAITSGGITNYADSVKGRFTISRDNAKNTVYLQMNSLKPEDTAVYYCNTRRGWRDFDYWGQGTQVTVSS”, for which the “polyreactivity (PSR sort gate)” value is reported as “low polyreactivity”.

Regarding “QVQLVESGGGLVQAGGSLRLSCAASGRTFKPYAMGWYRQARGKERELVAAISTRGGSTYYADSVKGRFTISRDNAKNTVYLQMNSLKPEDTAVYYCAATQPGRDYDYWGQGTQVTVSS”, the “polyreactivity (PSR sort gate)” value is “low polyreactivity”.

As to “QVQLVESGGGLVQAGGSLRLSCAASGRTFKRYAMGWYRQAPGKERELVAAITFSGGSTYYADSVKGRFTISRDNAKNTVYLQRNSLKPEDTAVYYCAADGEHYPWYYYWGQGTQVTVSS”, the “polyreactivity (PSR sort gate)” value is recorded as “high polyreactivity”.

For “QVQLVESGGGLVQAGGSLRLSCAASGRTFKRYAMGWYRQAPGKERELVAGISRGGNTNYADSVKGRFTISRDNAKNTVYLQMNSLNPEDTAVYYCNKDYSFEYSLRNRDYWGQGTQVTVSS”, the “polyreactivity (PSR sort gate)” value was “low polyreactivity”.

On to “QVQLVESGGGLVQAGGSLRLSCAASGRTFKSNAMGWYRQAPGKERELVATINYSATSTYYADSVKGSFTISRDNAKNTVYLQMNSLKPEDTAVYYCNVACGYSYRGLDYWGQVTQVTVSS”, for which the “polyreactivity (PSR sort gate)” value is given as “high polyreactivity”.

In the case of “QVQLVESGGGLVQAGGSLRLSCAASGRTFKTYAMAWYRQAPGKERELVAAISRDGRTYYADSVKGRFTISRDNAKNTVYLQMNSLKPEDTAVYYCNKRSYRNGDYWGQGTQVTVSS”, the “polyreactivity (PSR sort gate)” value was “low polyreactivity”.

Turning to “QVQLVESGGGLVQAGGSLRLSCAASGRTFKTYTMGWYRQEPGKERELVAVISSGGGSTNYADSVKGRFTISRDKAKNTVNLQMNSRKPEDTAVYYCAARKPGRPKYRYDYWGQGSQVTVSS”, the “polyreactivity (PSR sort gate)” value is listed as “low polyreactivity”.

As for “QVQLVESGGGLVQAGGSLRLSCAASGRTFKWYAMGWYRQAPGKERELVAAITTGGNTYYADSVKGRFTISRDNAKNTVYLQMNSLTPEDTAVYYCARVPTQGYNPYEYWGQGTQVTVSS”, the “polyreactivity (PSR sort gate)” value is on record as “low polyreactivity”.

The record behind these values is the nanobody polyreactivity screen of Harvey et al. (2022).
